The labels stand for the following.
B1: CE115HA000 H35Q (antibody, human IgG1, kappa, L234A L235A, N297A, name in Kabat numbering)
heavy: QVQLVESGGGVVQPGRSLRLSCAASGFTFSNAWMQWVRQAPGKGLEWVAQIKAKSNNYATYYAESVKGRFTISRDDSKNSLYLQMNSLKTEDTAVYYCRYVHYGAYYGVDAWGQGTTVTVSSASTKGPSVFPLAPSSKSTSGGTAALGCLVKDYFPEPVTVSWNSGALTSGVHTFPAVLQSSGLYSLSSVVTVPSSSLGTQTYICNVNHKPSNTKVDKKVEPKSCDKTHTCPPCPAPEAAGGPSVFLFPPKPKDTLMISRTPEVTCVVVDVSHEDPEVKFNWYVDGVEVHNAKTKPREEQYASTYRVVSVLTVLHQDWLNGKEYKCKVSNKALPAPIEKTISKAKGQPREPQVYTLPPSRCELTKNQVSLSCAVKGFYPSDIAVEWESNGQPENNYKTTPPVLDSDGSFFLVSKLTVDKSRWQQGNVFSCSVMHEALHNHYTQKSLSLSPDYKDDDDK
chain: EPKSSDKTHTCPPCPAPELLGGPSVFLFPPKPKDTLMISRTPEVTCVVVDVSHEDPEVKFNWYVDGVEVHNAKTKPREEQYNSTYRVVSVLTVLHQDWLNGKEYKCKVSNKALPAPIEKTISKAKGQPREPQVCTLPPSRDELTKNQVSLWCLVKGFYPSDIAVEWESNGQPENNYKTTPPVLDSDGSFFLYSKLTVDKSRWQQGNVFSCSVMHEALHNRYTQKSLSLSP
light: DIVMTQSPLSLPVTPGEPASISCRSSQSLVHSNRNTYLHWYQQKPGQAPRLLIYKVSNRFSGVPDRFSGSGSGTDFTLKISRVEAEDVGVYYCGQGTQVPYTFGQGTKLEIKRTVAAPSVFIFPPSDEQLKSGTASVVCLLNNFYPREAKVQWKVDNALQSGNSQESVTEQDSKDSTYSLSSTLTLSKADYEKHKVYACEVTHQGLSSPVTKSFNRGEC
notes: one-arm antibody
B2: CE115HA000 K52D (antibody, human IgG1, kappa, L234A L235A, N297A, name in Kabat numbering)
heavy: B1 heavy with Q35H, K52D
chain: B1 chain
light: B1 light
notes: one-arm antibody
B3: CE115HA000 H35T (antibody, human IgG1, kappa, L234A L235A, N297A, name in Kabat numbering)
heavy: B1 heavy with Q35T
chain: B1 chain
light: B1 light
notes: one-arm antibody
B4: CE115HA000 H96S (antibody, human IgG1, kappa, L234A L235A, N297A, name in Kabat numbering)
heavy: B1 heavy with Q35H, H102S
chain: B1 chain
light: B1 light
notes: one-arm antibody
B5: CE115HA000 K52E (antibody, human IgG1, kappa, L234A L235A, N297A, name in Kabat numbering)
heavy: B1 heavy with Q35H, K52E
chain: B1 chain
light: B1 light
notes: one-arm antibody
B6: CE115HA000 K52F (antibody, human IgG1, kappa, L234A L235A, N297A, name in Kabat numbering)
heavy: B1 heavy with Q35H, K52F
chain: B1 chain
light: B1 light
notes: one-arm antibody
B7: CE115HA000 H35W (antibody, human IgG1, kappa, L234A L235A, N297A, name in Kabat numbering)
heavy: B1 heavy with Q35W
chain: B1 chain
light: B1 light
notes: one-arm antibody
B8: CE115HA000 I51E (antibody, human IgG1, kappa, L234A L235A, N297A, name in Kabat numbering)
heavy: B1 heavy with Q35H, I51E
chain: B1 chain
light: B1 light
notes: one-arm antibody
B9: CE115HA000 I51D (antibody, human IgG1, kappa, L234A L235A, N297A, name in Kabat numbering)
heavy: B1 heavy with Q35H, I51D
chain: B1 chain
light: B1 light
notes: one-arm antibody
B10: CE115HA000 H96L (antibody, human IgG1, kappa, L234A L235A, N297A, name in Kabat numbering)
heavy: B1 heavy with Q35H, H102L
chain: B1 chain
light: B1 light
notes: one-arm antibody
B11: CE115HA000 H96Q (antibody, human IgG1, kappa, L234A L235A, N297A, name in Kabat numbering)
heavy: B1 heavy with Q35H, H102Q
chain: B1 chain
light: B1 light
notes: one-arm antibody
B12: CE115HA000 H35R (antibody, human IgG1, kappa, L234A L235A, N297A, name in Kabat numbering)
heavy: B1 heavy with Q35R
chain: B1 chain
light: B1 light
notes: one-arm antibody
B13: CE115HA000 K43Q (antibody, human IgG1, kappa, L234A L235A, N297A, name in Kabat numbering)
heavy: B1 heavy with Q35H, K43Q
chain: B1 chain
light: B1 light
notes: one-arm antibody
B14: CE115HA000 H96G (antibody, human IgG1, kappa, L234A L235A, N297A, name in Kabat numbering)
heavy: B1 heavy with Q35H, H102G
chain: B1 chain
light: B1 light
notes: one-arm antibody
B15: CE115HA000 H96R (antibody, human IgG1, kappa, L234A L235A, N297A, name in Kabat numbering)
heavy: B1 heavy with Q35H, H102R
chain: B1 chain
light: B1 light
notes: one-arm antibody
B16: CE115HA000 K43E (antibody, human IgG1, kappa, L234A L235A, N297A, name in Kabat numbering)
heavy: B1 heavy with Q35H, K43E
chain: B1 chain
light: B1 light
notes: one-arm antibody
B17: CE115HA000 H35V (antibody, human IgG1, kappa, L234A L235A, N297A, name in Kabat numbering)
heavy: B1 heavy with Q35V
chain: B1 chain
light: B1 light
notes: one-arm antibody
B18: CE115HA000 H96P (antibody, human IgG1, kappa, L234A L235A, N297A, name in Kabat numbering)
heavy: B1 heavy with Q35H, H102P
chain: B1 chain
light: B1 light
notes: one-arm antibody
B19: CE115HA000 H96K (antibody, human IgG1, kappa, L234A L235A, N297A, name in Kabat numbering)
heavy: B1 heavy with Q35H, H102K
chain: B1 chain
light: B1 light
notes: one-arm antibody
B20: CE115HA000 H35S (antibody, human IgG1, kappa, L234A L235A, N297A, name in Kabat numbering)
heavy: B1 heavy with Q35S
chain: B1 chain
light: B1 light
notes: one-arm antibody
B21: CE115HA000 H35Y (antibody, human IgG1, kappa, L234A L235A, N297A, name in Kabat numbering)
heavy: B1 heavy with Q35Y
chain: B1 chain
light: B1 light
notes: one-arm antibody
B22: CE115HA000 H96Y (antibody, human IgG1, kappa, L234A L235A, N297A, name in Kabat numbering)
heavy: B1 heavy with Q35H, H102Y
chain: B1 chain
light: B1 light
notes: one-arm antibody

Numbering of substitutions follows the chain as printed.

T1 sequence (P07766 23-126): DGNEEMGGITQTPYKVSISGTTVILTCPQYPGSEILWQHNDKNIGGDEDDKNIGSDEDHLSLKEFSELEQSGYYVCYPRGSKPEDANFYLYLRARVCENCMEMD

This experiment addresses T1, CD3 epsilon homodimer protein (UniProt P07766 23-126).
T1 construct: also called CD3 (CD3 epsilon)
Put plainly: SPR, CD3 epsilon homodimer on chip, one-arm antibody as analyte.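 Further: surface plasmon resonance at 25 °C with CD3 epsilon homodimer amine-coupled to a CM4 sensor chip, antibody injected as analyte, HBS-EP+ as running buffer.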
For the molecule B1, the “KD ratio (KD of CE115HA000/KD of altered form)” value (“KD ratio” below) was 4.8.
The result for B2 reads 166; that for B3, 4.4; that for B4, 1.15.
The result for B5 reads 19.4; that for B6, 4.04; that for B7, 50.4.
As for B8, the figure is 0.54.
As to B9, the “KD ratio” value came to 6.37.
The result for B10 reads 3.14.
The result for B11 reads 1.36; that for B12, 15400; that for B13, 0.89.
As for B14, the figure is 0.8.
Turning to B15, the “KD ratio” value is 1.59.
Regarding B16, the “KD ratio” value stood at 0.88.
Regarding B17, the “KD ratio” value is 28.1.
The result for B18 reads 87000; that for B19, 1.56; that for B20, 2.93.
As for B21, the figure is 119000; as for B22, 6.67.
